Laboratory results from paper PMC8513821 (Nature, 2021).

Target: the molecule itself
Assay: single-molecule photobleaching step counting

B1: HCN1SM (human HCN1 with amino acids 636-865 deleted, N-terminal Twin-strep tag and eGFP) (complex, UniProt O60741 1-890, looked up)
chain: MEGGGKPNSSSNSRDDGNSVFPAKASATGAGPAAAEKRLGTPPGGGGAGAKEHGNSVCFKVDGGGGGGGGGGGGEEPAGGFEDAEGPRRQYGFMQRQFTSMLQPGVNKFSLRMFGSQKAVEKEQERVKTAGFWIIHPYSDFRFYWDLIMLIMMVGNLVIIPVGITFFTEQTTTPWIIFNVASDTVFLLDLIMNFRTGTVNEDSSEIILDPKVIKMNYLKSWFVVDFISSIPVDYIFLIVEKGMDSEVYKTARALRIVRFTKILSLLRLLRLSRLIRYIHQWEEIFHMTYDLASAVVRIFNLIGMMLLLCHWDGCLQFLVPLLQDFPPDCWVSLNEMVNDSWGKQYSYALFKAMSHMLCIGYGAQAPVSMSDLWITMLSMIVGATCYAMFVGHATALIQSLDSSRRQYQEKYKQVEQYMSFHKLPADMRQKIHDYYEHRYQGKIFDEENILNELNDPLREEIVNFNCRKLVATMPLFANADPNFVTAMLSKLRFEVFQPGDYIIREGAVGKKMYFIQHGVAGVITKSSKEMKLTDGSYFGEICLLTKGRRTASVRADTYCRLYSLSVDNFNEVLEEYPMMRRAFETVAIDRLDRIGKKNSILLQKFQKDLNTGVFNNQENEILKQIVKHDREMVQAALPRESSSVLNTDPDAEKPRFASNL
stoichiometry N: 4
